Blank lines part the entries; values can stand above or below the binder they belong to.
Molecular target: T1, Recombinant human sCD4 CF (Homo sapiens, UniProt P01730)
T1 construct: CD4, human, soluble recombinant form (sCD4, carrier-free); it is probably the extracellular domain of CD4 (surmised); also called recombinant CD4; source: bought: R&D Systems
Test: SPR; Biacore T-200; sCD4 (2486.9 RU) or GFP (1189.8 RU) immobilised on CM5 chip; nanobodies flowed in HBS-EP (0.01 M HEPES pH 7.4, 0.15 M NaCl, 3 mM EDTA, 0.005% P20): anti-CD4 0.2-1.0 uM, anti-GFP 0.5-50 nM; 30 uL/min, contact 120 s, dissociation 120 s
Conditions: both partners purified

- Kd: 42 nM
- koff: 0.0054 s⁻¹
- kon: 68000 M⁻¹ s⁻¹
B1: Anti-CD4-FLAG nanobody (VHH)
VHH: EVQLVESGGGSVQPGGSLTLSCGTSGRTFNVMGWFRQAPGKEREFVAAVRWSSTGIYYTQYADSVKSRFTISRDNAKNTVYLEMNSLKPEDTAVYYCAADTYNSNPARWDGYDFRGQGTQVTVSS
notes: also called anti-CD4 nanobody; source: Pichia pastoris GS115, secreted; culture supernatant filtered, concentrated and buffer-replaced with PBS

- Kd: 52 nM
- koff: 0.004 s⁻¹
- kon: 77000 M⁻¹ s⁻¹
B2: Anti-CD4-FLAG-Barcode 1 nanobody (VHH)
VHH: B1 VHH
notes: also called peptide-barcoded anti-CD4 nanobody; source: Pichia pastoris GS115, secreted; culture supernatant filtered, concentrated and buffer-replaced with PBS; purified with anti-FLAG gels (immunostaining)

Source: article PMC6478338, “Peptide barcoding for establishment of new types of genotype–phenotype linkages” (PLoS ONE, 2019)
